In publication PMC12703448 (2025) one finds Kd data, which are given here for one molecule.

The star is where a group is joined. Farnesyl = CC(C)=CCC/C(C)=C/CC/C(C)=C/C*; FAM = fluorescein label

The assay deals with T1, K-Ras4B C-terminal peptide (Homo sapiens, also: FAM-labelled).
T1 chain: {FAM}-KKKKKKSKTKC(Farnesyl)-OMe
Briefly: fluorescence polarization. (In general: Polarisation of emitted light reports the rotation of a fluorescent probe.)

B1: PDE6D (protein)
chain: MSAKDERAREILRGFKLNWMNLRDAETGKILWQGTEDLSVPGVEHEARVPKKILKCKAVSRELNFSSTEQMEKFRLEQKVYFKGQCLEEWFFEFGFVIPNSTNTWQSLIEAAPESQMMPASVLTGNVIIETKFFDDDLLVSTSRVRLFYV
B1: binding was put at a Kd of 150 nM. That is a sub-micromolar value.
